Data reported in the supplement of paper PMC9876800.

Tested on: peptide library, one residue held at a place counted from the S/T acceptor
Assay: relative phosphorylation of the sub-library (ratio to the mean residue at this position); higher = residue favoured
Settings: human
In short: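 Each biotinylated degenerate peptide sub-library fixed one residue at one position around a central Ser/Thr and was incubated with a purified recombinant kinase, a human or orthologue construct, in 384-well plates. The 90 min reactions, under kinase-specific conditions, contained 50 μM peptide and 50 μM ATP spiked with γ-32P-ATP. Phosphorylation was read by phosphorimaging spots on streptavidin membranes and quantifying them by densitometry. Relative sub-library phosphorylation expresses each value as a ratio to the mean residue at that position.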

SBK1, construct: Full length, sequence (Q52WX2 whole entry, looked up): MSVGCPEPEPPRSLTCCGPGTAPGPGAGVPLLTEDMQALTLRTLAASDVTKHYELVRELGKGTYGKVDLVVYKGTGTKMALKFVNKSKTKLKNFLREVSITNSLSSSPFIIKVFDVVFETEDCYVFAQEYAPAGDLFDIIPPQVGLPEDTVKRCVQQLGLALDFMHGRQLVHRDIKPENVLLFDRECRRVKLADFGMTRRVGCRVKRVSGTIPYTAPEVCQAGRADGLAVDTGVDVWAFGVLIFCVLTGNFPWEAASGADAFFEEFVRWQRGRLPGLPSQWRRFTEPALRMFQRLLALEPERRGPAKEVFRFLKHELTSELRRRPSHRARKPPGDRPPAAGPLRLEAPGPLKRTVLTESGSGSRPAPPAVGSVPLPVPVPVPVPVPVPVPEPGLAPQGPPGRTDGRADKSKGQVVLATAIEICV
FAM20C, construct: aa23-end, sequence (Q8IXL6 23-584, looked up): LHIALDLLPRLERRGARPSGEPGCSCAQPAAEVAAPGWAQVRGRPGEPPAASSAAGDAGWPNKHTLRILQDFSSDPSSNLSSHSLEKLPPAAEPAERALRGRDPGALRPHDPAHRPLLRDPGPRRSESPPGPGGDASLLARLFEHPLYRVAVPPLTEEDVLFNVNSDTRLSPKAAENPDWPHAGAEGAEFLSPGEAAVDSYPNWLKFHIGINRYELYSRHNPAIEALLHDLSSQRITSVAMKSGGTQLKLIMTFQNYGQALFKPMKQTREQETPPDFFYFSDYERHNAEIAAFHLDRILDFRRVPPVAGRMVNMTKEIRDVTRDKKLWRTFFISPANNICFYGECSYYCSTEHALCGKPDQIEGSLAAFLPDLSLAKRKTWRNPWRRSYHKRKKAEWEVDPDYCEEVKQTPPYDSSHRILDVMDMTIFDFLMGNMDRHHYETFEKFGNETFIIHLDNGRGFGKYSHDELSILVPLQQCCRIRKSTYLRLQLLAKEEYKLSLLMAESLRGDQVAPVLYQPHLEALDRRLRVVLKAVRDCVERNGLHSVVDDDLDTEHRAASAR
PAK5, construct: aa425-end, sequence (Q9P286 425-719, looked up): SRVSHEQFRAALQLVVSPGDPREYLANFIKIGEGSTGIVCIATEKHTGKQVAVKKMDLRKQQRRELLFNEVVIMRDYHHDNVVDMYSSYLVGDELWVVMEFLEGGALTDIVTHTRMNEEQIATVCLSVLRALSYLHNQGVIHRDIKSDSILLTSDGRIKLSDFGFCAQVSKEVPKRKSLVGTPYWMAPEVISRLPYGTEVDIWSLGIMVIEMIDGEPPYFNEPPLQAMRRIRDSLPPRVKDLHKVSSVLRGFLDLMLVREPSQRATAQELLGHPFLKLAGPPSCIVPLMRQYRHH
ULK2, construct: aa1-478, sequence (Q8IYT8 1-478, looked up): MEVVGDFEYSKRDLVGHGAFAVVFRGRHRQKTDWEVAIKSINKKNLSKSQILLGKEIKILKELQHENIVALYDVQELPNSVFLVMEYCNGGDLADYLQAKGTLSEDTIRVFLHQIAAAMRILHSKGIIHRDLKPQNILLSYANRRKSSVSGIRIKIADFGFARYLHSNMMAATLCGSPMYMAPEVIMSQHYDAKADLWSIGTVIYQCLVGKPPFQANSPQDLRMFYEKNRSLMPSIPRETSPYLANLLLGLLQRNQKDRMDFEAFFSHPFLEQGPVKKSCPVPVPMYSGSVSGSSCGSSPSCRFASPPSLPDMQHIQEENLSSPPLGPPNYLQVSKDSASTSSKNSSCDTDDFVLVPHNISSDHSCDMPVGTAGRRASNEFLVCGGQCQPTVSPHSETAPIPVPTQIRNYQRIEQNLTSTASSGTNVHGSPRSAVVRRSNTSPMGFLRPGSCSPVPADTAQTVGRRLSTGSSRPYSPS

SBK1, construct: Full length (from UniProt Q52WX2)
relative phosphorylation
Settings	at +1	at +2	at +3	at +4	at -1	at -2	at -3	at -4	at -5
A fixed	0.96	0.91	0.834	0.989	0.983	1.24	0.407	1.08	0.746
D fixed	0.948	1.5	1.36	1.18	1.06	0.195	0.0944	0.269	0.195
E fixed	0.863	1.29	1.41	1.01	0.51	0.239	0.113	0.58	0.186
F fixed	0.737	1	0.925	0.851	0.808	0.782	0.161	0.922	2.33
G fixed	1.32	1.01	1.18	1.25	1.22	0.42	0.151	0.634	0.383
H fixed	0.958	1.36	1.11	1.14	1.38	1.02	0.37	1.29	0.5
I fixed	0.817	0.677	0.747	0.787	0.251	0.861	0.133	0.753	1.97
K fixed	0.485	0.494	0.622	0.828	0.982	1.71	1.76	1.99	0.506
L fixed	0.93	0.881	0.812	0.905	0.862	0.957	0.166	0.656	1.83
M fixed	0.852	0.849	0.793	0.983	1.15	1.75	0.184	0.998	1.09
N fixed	1.35	1.18	1.07	1.18	1.94	0.609	0.187	0.49	0.255
P fixed	2.53	1.08	1.64	1.69	1.74	0.27	0.188	0.275	1.15
Q fixed	1.12	1.17	1.04	0.994	1.07	1.21	0.581	1.18	0.597
R fixed	0.531	0.682	0.619	0.709	0.828	2.71	12	2.72	1.07
V fixed	0.953	0.693	0.77	0.699	0.401	1.27	0.153	0.95	1.22
W fixed	0.834	1.05	1.09	0.958	0.658	0.792	0.198	0.926	2.21
Y fixed	0.816	1.16	0.979	0.858	1.16	0.961	0.178	1.28	0.746
pThr fixed	0.598	1.1	1.02	1.4	0.203	0.181	0.105	0.261	0.193
pTyr fixed	0.717	1.35	1.36	1.6	0.745	0.215	0.0961	0.24	0.374

PAK5, construct: aa425-end (from UniProt Q9P286)
relative phosphorylation
Settings	at +1	at +2	at +3	at +4	at -1	at -2	at -3	at -4	at -5
A fixed	0.523	3.81	0.935	0.868	0.794	0.298	0.638	1.06	1.07
D fixed	0.142	0.456	0.657	0.741	0.332	0.0993	0.253	0.673	0.561
E fixed	0.161	0.217	0.94	0.704	0.254	0.0919	0.269	0.731	0.544
F fixed	1.37	0.928	1.42	0.877	1.06	0.519	0.574	0.881	0.948
G fixed	0.353	0.908	1.17	1.34	0.645	0.224	0.814	1.22	1.14
H fixed	0.93	0.94	1.08	0.987	1.36	1.1	1.02	1.16	1.18
I fixed	1.82	0.958	0.944	0.834	0.538	0.325	0.439	0.591	0.78
K fixed	0.715	0.343	0.634	0.97	1.72	0.815	3.3	1.53	1.74
L fixed	1.48	0.79	1.19	0.826	1.22	0.27	0.432	0.804	0.794
M fixed	1.83	0.681	1.07	0.876	1.28	0.347	0.557	0.932	0.835
N fixed	0.402	0.924	0.702	1.01	0.942	0.26	0.744	0.959	0.986
P fixed	0.18	0.846	1.08	1.74	0.278	0.576	0.567	0.867	0.899
Q fixed	0.672	0.742	0.842	0.977	0.991	0.455	0.895	1	0.836
R fixed	0.911	0.444	0.861	1.33	2.54	9.1	4.48	1.98	1.79
V fixed	1.55	1.87	0.962	0.798	0.531	0.333	0.376	0.586	0.791
W fixed	2.21	1.02	1.32	1.21	1.14	0.428	0.898	1.08	1.12
Y fixed	1.74	1.12	1.21	0.917	1.38	1.76	0.745	0.935	0.987
pThr fixed	0.367	0.442	0.647	0.925	0.214	0.201	0.373	0.693	0.735
pTyr fixed	0.581	0.527	0.956	0.732	0.268	0.216	0.45	0.731	0.729

FAM20C, construct: aa23-end (from UniProt Q8IXL6)
relative phosphorylation
Settings	at +1	at +2	at +3	at +4	at -1	at -2	at -3	at -4	at -5
A fixed	1.77	0.243	0.795	0.935	1.27	1.28	0.91	1.14	1.14
D fixed	1.03	0.708	2.21	1.67	2.77	1.99	1.61	1.68	1.46
E fixed	2.15	13	2.58	1.91	1.4	1.19	1.66	1.52	1.31
F fixed	0.537	0.173	0.624	0.825	0.423	0.95	0.693	0.737	1.04
G fixed	1.61	0.214	0.518	1.45	1.31	1.28	1.45	1.26	1.05
H fixed	1.39	0.25	0.863	0.874	1.29	1.08	0.95	1.02	1.43
I fixed	0.52	0.155	1.13	1.02	0.468	0.663	0.619	0.789	0.751
K fixed	0.822	0.185	0.516	0.607	0.589	0.647	0.719	0.745	0.896
L fixed	0.54	0.159	1.07	0.788	0.485	0.581	0.968	0.826	0.832
M fixed	1.11	0.205	0.884	0.92	0.555	0.673	0.851	0.887	0.761
N fixed	1.08	0.277	0.845	0.806	2.19	1.8	1.2	1.08	1.14
P fixed	0.253	0.18	0.252	0.777	0.303	1.11	1.01	1.06	0.843
Q fixed	1.26	0.454	1.17	0.863	0.934	0.809	1.07	0.997	0.907
R fixed	0.958	0.2	0.603	0.571	0.685	0.612	0.918	0.75	0.809
V fixed	0.618	0.179	1.36	1.02	0.808	0.701	0.682	0.876	0.959
W fixed	0.696	0.208	0.831	1.05	0.839	0.795	0.861	0.895	1.01
Y fixed	0.65	0.199	0.76	0.913	0.681	0.851	0.835	0.736	0.66
pThr fixed	0.641	0.744	1.28	3.06	0.797	1.09	1.49	1.38	1.05
pTyr fixed	0.699	1.02	2.15	2.74	1.08	1.96	1.64	1.1	1.19

ULK2, construct: aa1-478 (from UniProt Q8IYT8)
relative phosphorylation
Settings	at +1	at +2	at +3	at +4	at -1	at -2	at -3	at -4	at -5
A fixed	0.728	0.707	0.906	0.969	1.08	1.11	0.982	1.31	1.38
D fixed	0.31	0.349	0.794	0.811	1.04	1.1	0.736	1.16	1.29
E fixed	0.365	0.348	0.775	0.701	0.927	1.05	0.599	0.953	1.08
F fixed	1.4	0.962	0.824	0.652	0.63	1.14	0.873	0.616	0.704
G fixed	0.631	0.582	1.39	1.28	1.09	1.12	1.24	1.47	1.23
H fixed	0.927	1.62	1.19	1.17	0.923	1.31	0.774	1.05	1.11
I fixed	1.49	1.03	0.872	0.796	0.637	0.728	0.739	0.685	0.679
K fixed	0.863	1.09	1.51	1.43	1.53	0.703	0.63	0.968	1.21
L fixed	1.07	0.851	0.858	0.831	0.788	0.843	1.54	0.738	0.748
M fixed	1.78	1.08	0.867	0.938	1.11	1.11	2.88	0.946	0.705
N fixed	0.665	0.848	0.895	1.02	1.12	1.18	1.12	1.24	1.16
P fixed	0.167	0.441	0.832	1.28	0.567	0.492	0.774	1.19	1.01
Q fixed	1.37	0.846	0.932	1.01	1.4	0.965	0.955	0.91	0.995
R fixed	1.05	1.59	1.37	1.28	1.48	0.655	0.693	0.965	1.1
V fixed	1.53	1.02	0.945	0.863	1.02	0.774	0.808	0.748	0.815
W fixed	1.14	1.6	1.02	1.11	0.814	1.6	1.02	1.3	1.02
Y fixed	1.51	2.04	1.02	0.854	0.85	1.12	0.652	0.761	0.754
pThr fixed	0.659	0.378	0.594	0.749	0.557	0.6	0.707	0.833	0.782
pTyr fixed	0.882	0.714	0.817	0.647	0.923	1.04	0.619	0.547	0.707
